The values that follow come from patent US20230111363A1.

For test [1], the target named is human serum polyclonal antibodies. In words: cross-interaction chromatography (CIC), column with human serum polyclonal IgG.
Test [2] has the same target. In words: cross-interaction chromatography (CIC), IgG column against blank column.

B1: anti-human MCT1 antibody Ab1 (antibody, human IgG1, kappa, V domains shown)
VH: QVQLVQSGAEVKKPGASVKVSCTVSGFSLTNYHLQWVRQAPGQGLEWMGFIRSSGNTEYNSEFKSRVTMTRDTSTSTVYMELSSLRSEDTAVYYCARNSWYHGTYYSPGYYVMDAWGQGTLVTVSS
VL: EIVLTQSPGTLSLSPGERATLSCKGSQNINNYLAWYQQKPGQAPRLLIYNRHNLQTGIPDRFSGSGSGTDFTLTISRLEPEDFAVYYCYQYSDGYTFGGGTKVEIKR
In test [1], B1 showed an IgG column RT of 5.07 min and an IgG column peak width of 1.5 min. Moreover, the IgG K' (column retention time ratio) in test [2] is 0.05.

B2: anti-human MCT1 antibody Ab9 (antibody, human IgG1, kappa, V domains shown)
VH: QVQLVQSGAEVKKPGASVKVSCTVSGRSLTNYHIQWVRQAPGQGLEWMGFIRSSGNTEYNSEFKSRVTMTRDTSTSTVYMELSSLRSEDTAVYYCARNRWYHGTYYSPGYYVMDAWGQGTLVTVSS
VL: EIVLTQSPGTLSLSPGERATLSCKGSQNIENYLAWYQQKPGQAPRLLIYNRHNLQTGIPDRFSGSGSGTDFTLTISRLEPEDFAVYYCYQYSDGYTFGGGTKVEIKR
Regarding B2, in test [1], the IgG column RT worked out at 5.28 min and the IgG column peak width turned out to be 1.46 min. Also, in test [2], the IgG K' (column retention time ratio) is 0.07.

B3: anti-human MCT1 antibody Ab14 (antibody, human IgG1, kappa, V domains shown)
VH: QVQLVQSGAEVKKPGASVKVSCTVSGRSLTNYHLQWVRQAPGQGLEWMGFIRSSGNTEYNSEFKSRVTMTRDTSTSTVYMELSSLRSEDTAVYYCARNRWYHGTYYSPGYYVMDPWGQGTLVTVSS
VL: EIVLTQSPGTLSLSPGERATLSCKGSQNIENYLAWYQQKPGQAPRLLIYNRHNLQTGIPDRFSGSGSGTDFTLTISRLEPEDFAVYYCYQYSDGYTFGGGTKVEIKR
As for B3, in test [1], the IgG column RT is 5.29 min and the IgG column peak width was found to be 1.51 min. Also, the IgG K' (column retention time ratio) in test [2] worked out at 0.07.

B4: anti-human MCT1 antibody Ab18 (antibody, human IgG1, kappa, V domains shown)
VH: QVQLVQSGAEVKKPGASVKVSCTVSGRSLTNYHLGWVRQAPGQGLEWMGFIRSSGNTEYNSEFKSRVTMTRDTSTSTVYMELSSLRSEDTAVYYCARNRWYHGTYYSPGYYVMDAWGQGTLVTVSS
VL: EIVLTQSPGTLSLSPGERATLSCKGSQNIENYLAWYQQKPGQAPRLLIYNRHNLQTGIPDRFSGSGSGTDFTLTISRLEPEDFAVYYCYQYSDGYTFGGGTKVEIKR
On to B4, for which, in test [1], the IgG column RT is 5.35 min and the IgG column peak width was 1.64 min. Also, the IgG K' (column retention time ratio) in test [2] came to 0.08.

B5: anti-human MCT1 antibody Ab13 (antibody, human IgG1, kappa, V domains shown)
VH: QVQLVQSGAEVKKPGASVKVSCTVSGRSLTNYHLQWVRQAPGQGLEWMGFIRSSGNTEYNSEFKSRVTMTRDTSTSTVYMELSSLRSEDTAVYYCARNRWRHGTYYSPGYYVMDAWGQGTLVTVSS
VL: EIVLTQSPGTLSLSPGERATLSCKGSQNIENYLAWYQQKPGQAPRLLIYNRHNLQTGIPDRFSGSGSGTDFTLTISRLEPEDFAVYYCYQYSDGYTFGGGTKVEIKR
In test [1], B5 gave an IgG column RT of 5.33 min and an IgG column peak width of 1.63 min. Moreover, the IgG K' (column retention time ratio) in test [2] is 0.07.

B6: anti-human MCT1 antibody Ab12 (antibody, human IgG1, kappa, V domains shown)
VH: QVQLVQSGAEVKKPGASVKVSCTVSGRSLTNYHLVWVRQAPGQGLEWMGFIRSSGNTEYNSEFKSRVTMTRDTSTSTVYMELSSLRSEDTAVYYCARNRWYHGTYYSPGYYVMDAWGQGTLVTVSS
VL: EIVLTQSPGTLSLSPGERATLSCKGSQNIENYLAWYQQKPGQAPRLLIYNRHNLQTGIPDRFSGSGSGTDFTLTISRLEPEDFAVYYCYQYSDGYTFGGGTKVEIKR
For the molecule B6, in test [1], the IgG column RT was determined as 5.29 min and the IgG column peak width was found to be 1.46 min. The IgG K' (column retention time ratio) in test [2] was 0.07.

B7: anti-human MCT1 antibody Ab8 (antibody, human IgG1, kappa, V domains shown)
VH: QVQLVQSGAEVKKPGASVKVSCTVSGRSLTNYHLQWVRQAPGQGLEWMGFIRSSGNTIYNSEFKSRVTMTRDTSTSTVYMELSSLRSEDTAVYYCARNRWYHGTYYSPGYYVMDAWGQGTLVTVSS
VL: EIVLTQSPGTLSLSPGERATLSCKGSQNIENYLAWYQQKPGQAPRLLIYNRHNLQTGIPDRFSGSGSGTDFTLTISRLEPEDFAVYYCYQYSDGYTFGGGTKVEIKR
In test [1], B7 registered an IgG column RT of 5.34 min and an IgG column peak width of 1.55 min. For the same molecule, the IgG K' (column retention time ratio) in test [2] was found to be 0.07.

B8: anti-human MCT1 antibody Ab10 (antibody, human IgG1, kappa, V domains shown)
VH: QVQLVQSGAEVKKPGASVKVSCTVSGRSLTGYHLQWVRQAPGQGLEWMGFIRSSGNTEYNSEFKSRVTMTRDTSTSTVYMELSSLRSEDTAVYYCARNRWYHGTYYSPGYYVMDAWGQGTLVTVSS
VL: EIVLTQSPGTLSLSPGERATLSCKGSQNIENYLAWYQQKPGQAPRLLIYNRHNLQTGIPDRFSGSGSGTDFTLTISRLEPEDFAVYYCYQYSDGYTFGGGTKVEIKR
In test [1], B8 returned an IgG column RT of 5.27 min and an IgG column peak width of 1.44 min. In test [2], the IgG K' (column retention time ratio) was determined as 0.06.

B9: anti-human MCT1 antibody Ab15 (antibody, human IgG1, kappa, V domains shown)
VH: QVQLVQSGAEVKKPGASVKVSCTVSGRSLTNYHLQWVRQAPGQGLEWMGFIRSSGNTEYNSEFKSRVTMTRDTSTSTVYMELSSLRSEDTAVYYCARNLWYHGTYYSPGYYVMDAWGQGTLVTVSS
VL: EIVLTQSPGTLSLSPGERATLSCKGSQNIENYLAWYQQKPGQAPRLLIYNRHNLQTGIPDRFSGSGSGTDFTLTISRLEPEDFAVYYCYQYSDGYTFGGGTKVEIKR
Turning to B9, in test [1], the IgG column RT worked out at 5.27 min and the IgG column peak width came out at 1.55 min. In addition, in test [2], the IgG K' (column retention time ratio) worked out at 0.09.

B10: anti-human MCT1 antibody Ab17 (antibody, human IgG1, kappa, V domains shown)
VH: QVQLVQSGAEVKKPGASVKVSCTVSGRSLTNIHLQWVRQAPGQGLEWMGFIRSSGNTEYNSEFKSRVTMTRDTSTSTVYMELSSLRSEDTAVYYCARNRWYHGTYYSPGYYVMDAWGQGTLVTVSS
VL: EIVLTQSPGTLSLSPGERATLSCKGSQNIENYLAWYQQKPGQAPRLLIYNRHNLQTGIPDRFSGSGSGTDFTLTISRLEPEDFAVYYCYQYSDGYTFGGGTKVEIKR
In test [1], B10 had an IgG column RT of 5.19 min and an IgG column peak width of 1.36 min. The IgG K' (column retention time ratio) in test [2] turned out to be 0.05.

B11: anti-human MCT1 antibody Ab16 (antibody, human IgG1, kappa, V domains shown)
VH: QVQLVQSGAEVKKPGASVKVSCTRSGRSLTNYHLQWVRQAPGQGLEWMGFIRSSGNTEYNSEFKSRVTMTRDTSTSTVYMELSSLRSEDTAVYYCARNRWYHGTYYSPGYYVMDAWGQGTLVTVSS
VL: EIVLTQSPGTLSLSPGERATLSCKGSQNIENYLAWYQQKPGQAPRLLIYNRHNLQTGIPDRFSGSGSGTDFTLTISRLEPEDFAVYYCYQYSDGYTFGGGTKVEIKR
Consider B11, for which, in test [1], the IgG column RT came out at 5.4 min and the IgG column peak width came to 1.89 min. Also, the IgG K' (column retention time ratio) in test [2] came to 0.08.

B12: anti-human MCT1 antibody Ab11 (antibody, human IgG1, kappa, V domains shown)
VH: QVQLVQSGAEVKKPGASVKVSCTVSGRSLTNYHLQWVRQAPGQGLEWMGFIRSSGNTEYNSEFKSRVTMTRDTSTSTVYMELSSLRSEDTAVYYCARNRWHHGTYYSPGYYVMDAWGQGTLVTVSS
VL: EIVLTQSPGTLSLSPGERATLSCKGSQNIENYLAWYQQKPGQAPRLLIYNRHNLQTGIPDRFSGSGSGTDFTLTISRLEPEDFAVYYCYQYSDGYTFGGGTKVEIKR
Regarding B12, in test [1], the IgG column RT came out at 5.33 min and the IgG column peak width amounted to 1.57 min. Besides, the IgG K' (column retention time ratio) in test [2] came out at 0.06.

B13: anti-human MCT1 antibody Ab7 (antibody, human IgG1, kappa, V domains shown)
VH: QVQLVQSGAEVKKPGASVKVSCTVSGRSRTNYHLQWVRQAPGQGLEWMGFIRSSGNTEYNSEFKSRVTMTRDTSTSTVYMELSSLRSEDTAVYYCARNRWYHGTYYSPGYYVMDAWGQGTLVTVSS
VL: EIVLTQSPGTLSLSPGERATLSCKGSQNIENYLAWYQQKPGQAPRLLIYNRHNLQTGIPDRFSGSGSGTDFTLTISRLEPEDFAVYYCYQYSDGYTFGGGTKVEIKR
With B13, in test [1], the IgG column RT was found to be 5.38 min and the IgG column peak width worked out at 1.79 min. The IgG K' (column retention time ratio) in test [2] turned out to be 0.08.

B14: anti-human MCT1 antibody Ab19 (antibody, human IgG1, kappa, V domains shown)
VH: QVQLVQSGAEVKKPGASVKVSCTVSGRSLTNYHLQWVRQAPGQGLEWMGFIRRSGNTEYNSEFKSRVTMTRDTSTSTVYMELSSLRSEDTAVYYCARNRWYHGTYYSPGYYVMDAWGQGTLVTVSS
VL: EIVLTQSPGTLSLSPGERATLSCKGSQNIENYLAWYQQKPGQAPRLLIYNRHNLQTGIPDRFSGSGSGTDFTLTISRLEPEDFAVYYCYQYSDGYTFGGGTKVEIKR
Regarding B14, in test [1], the IgG column RT stood at 5.41 min and the IgG column peak width is 1.94 min. The IgG K' (column retention time ratio) in test [2] came to 0.08.
